{"source": "patent US20170137466A1", "about": "(UNIVERSITY OF SOUTHAMPTON, published 2017)", "target": "T1, HLA-Cw*0102", "T1 construct": "whole, on cells; MHC class I molecule on cells, as the partner that takes up the peptide; also called cell surface MHC class I of L721.174 cells", "assay": "MHC class I stabilisation on L721.174 cells with increasing peptide, flow cytometry", "description": "Cells were stained for cell surface of MHC class I and analysed by flow cytometry. The mean fluorescence intensity of cell surface MHC Class I was plotted against the peptide concentration.\n3×10⁵ cells were used per condition. Following washing in PBS the cells were stained for cell surface of MHC class I and analysed by flow cytometry. The mean fluorescence intensity of cell surface MHC Class I was plotted against the peptide concentration.", "data": [{"binder": "LNPSVAATL", "note": "[peptide LNPSVAATL (SEQ ID NO: 1)]", "values": [{"measurement": "binding result", "result": "binds"}]}]}
